In patent US20210230307A1:
pKd: −log10 of the molar value.

Target: Chicken egg white-derived lysozyme (Sigma-Aldrich) (chicken) (UniProt P00698)
Test: SPR, Biacore T200; antigen immobilized, antibody as analyte, as in Example 1

Chain of Chicken egg white-derived lysozyme (Sigma-Aldrich) (chicken) (P00698 19-147): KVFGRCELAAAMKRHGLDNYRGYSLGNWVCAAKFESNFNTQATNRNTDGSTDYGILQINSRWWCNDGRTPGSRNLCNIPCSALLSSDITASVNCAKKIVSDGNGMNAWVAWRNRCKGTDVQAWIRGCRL

pKd: 9.75
Substance: Wild-type mouse anti-lysozyme antibody of clone Hy-HEL5
